Results from the supplement of paper PMC9112550, “Optimization of the antimicrobial peptide Bac7 by deep mutational scanning” (BMC Biology, 2022).

System: Escherichia coli TOP10
Assay: shrunken log2 fold change of peptide-encoding DNA abundance (4.5 h post-induction vs induction); higher = less antimicrobial activity (less host growth inhibition)
Details: time post-induction: 4.5 h; library: site-saturation at positions 5, 18, 19, 20
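Further: peptides expressed intracellularly from a pBAD plasmid library in pooled LB shake-flask culture, induced with 0.3% L-arabinose, DNA abundance read by NGS, three biological replicates, DESeq2 with apeglm shrinkage.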

Sequence	shrunken log2 fold change
RRIRERPPRLPRPRPRPNRHPRP	-0.516
RRIRGRPPRLPRPRPRPKIFPRP	0.288
RRIRSRPPRLPRPRPRPIAVPRP	0.22
RRIRCRPPRLPRPRPRPQPEPRP	0.13
RRIRKRPPRLPRPRPRPKKTPRP	0.0396
RRIRMRPPRLPRPRPRPYNSPRP	-0.22
RRIRFRPPRLPRPRPRPFPDPRP	-0.137
RRIRVRPPRLPRPRPRPSIMPRP	-0.451
RRIRTRPPRLPRPRPRPWEQPRP	0.0248
RRIRMRPPRLPRPRPRPKGPPRP	0.716
RRIRTRPPRLPRPRPRPFWWPRP	0.299
RRIRKRPPRLPRPRPRPDDNPRP	1.02
RRIRTRPPRLPRPRPRPDHQPRP	-0.0261
RRIRVRPPRLPRPRPRPGPWPRP	0.273
RRIRIRPPRLPRPRPRPQHDPRP	-0.0884
RRIRQRPPRLPRPRPRPECYPRP	0.0583
RRIRKRPPRLPRPRPRPCPGPRP	-0.251
RRIRARPPRLPRPRPRPFQCPRP	0.0143
RRIRQRPPRLPRPRPRPVSRPRP	-0.00586
RRIRERPPRLPRPRPRPQTCPRP	-0.0436
RRIRFRPPRLPRPRPRPNNLPRP	-0.12
RRIRSRPPRLPRPRPRPYDTPRP	-0.532

Sequence	shrunken log2 fold change
RRIRFRPPRLPRPRPRPVRGPRP	0.576
RRIRWRPPRLPRPRPRPWNCPRP	-0.116
RRIRIRPPRLPRPRPRPGPCPRP	0.255
RRIRARPPRLPRPRPRPCDSPRP	0.0469
RRIRSRPPRLPRPRPRPWCRPRP	-0.398
RRIRTRPPRLPRPRPRPWNLPRP	-0.031
RRIRDRPPRLPRPRPRPSSMPRP	-0.292
RRIRPRPPRLPRPRPRPVCLPRP	0.081
RRIRYRPPRLPRPRPRPCFAPRP	-0.521
RRIRARPPRLPRPRPRPFSHPRP	-0.124
RRIRVRPPRLPRPRPRPFNVPRP	-0.185
RRIRGRPPRLPRPRPRPIWWPRP	0.922
RRIRCRPPRLPRPRPRPLTGPRP	-0.994
RRIRERPPRLPRPRPRPQMWPRP	-0.0958
RRIRLRPPRLPRPRPRPSDNPRP	-0.49
RRIRARPPRLPRPRPRPCGPPRP	0.0702
RRIRERPPRLPRPRPRPGYLPRP	-0.426
RRIRLRPPRLPRPRPRPDQDPRP	-0.218
RRIRRRPPRLPRPRPRPVNDPRP	0.52
RRIRHRPPRLPRPRPRPWHAPRP	-0.0793
RRIRKRPPRLPRPRPRPEAHPRP	0.151
RRIRMRPPRLPRPRPRPEEYPRP	0.0514

Sequence	shrunken log2 fold change
RRIRTRPPRLPRPRPRPHATPRP	-0.0102
RRIRFRPPRLPRPRPRPARIPRP	-0.0549
RRIRTRPPRLPRPRPRPLNVPRP	-0.0675
RRIRGRPPRLPRPRPRPYATPRP	1.81
RRIRRRPPRLPRPRPRPVGMPRP	1.08
RRIRFRPPRLPRPRPRPCVYPRP	-0.0699
RRIRWRPPRLPRPRPRPAHSPRP	0.321
RRIRERPPRLPRPRPRPKIFPRP	0.0686
RRIRDRPPRLPRPRPRPFKCPRP	0.0039
RRIRCRPPRLPRPRPRPFAYPRP	0.00718
RRIRWRPPRLPRPRPRPAITPRP	0.188
RRIRERPPRLPRPRPRPVAFPRP	-0.0756
RRIRPRPPRLPRPRPRPFWWPRP	0.55
RRIRSRPPRLPRPRPRPAWRPRP	0.567
RRIRVRPPRLPRPRPRPPMLPRP	-0.037
RRIRPRPPRLPRPRPRPGYHPRP	-0.506
RRIRTRPPRLPRPRPRPLVHPRP	-0.282
RRIRARPPRLPRPRPRPWCNPRP	-0.536
RRIRKRPPRLPRPRPRPNSYPRP	0.141
RRIRARPPRLPRPRPRPGSKPRP	0.227
RRIRGRPPRLPRPRPRPHEYPRP	-0.325
RRIRRRPPRLPRPRPRPLRKPRP	0.793

Sequence	shrunken log2 fold change
RRIRERPPRLPRPRPRPPDHPRP	-0.0455
RRIRHRPPRLPRPRPRPFKPPRP	-0.163
RRIRERPPRLPRPRPRPYVKPRP	0.04
RRIRDRPPRLPRPRPRPADGPRP	-0.00193
RRIRLRPPRLPRPRPRPCVAPRP	0.238
RRIRSRPPRLPRPRPRPLTHPRP	-0.569
RRIRCRPPRLPRPRPRPLSEPRP	-0.219
RRIRERPPRLPRPRPRPKKDPRP	-0.346
RRIRWRPPRLPRPRPRPQQLPRP	-0.289
RRIRYRPPRLPRPRPRPAHKPRP	0.00824
RRIRTRPPRLPRPRPRPDDLPRP	0.0162
RRIRSRPPRLPRPRPRPTWNPRP	-0.0149
RRIRNRPPRLPRPRPRPACKPRP	0.169
RRIRTRPPRLPRPRPRPMWKPRP	0.00922
RRIRIRPPRLPRPRPRPWYAPRP	-0.644
RRIRPRPPRLPRPRPRPVVSPRP	-0.0387
RRIRPRPPRLPRPRPRPTDLPRP	-0.0166
RRIRFRPPRLPRPRPRPPPNPRP	1.33
RRIRYRPPRLPRPRPRPYSEPRP	-0.199
RRIRSRPPRLPRPRPRPCLLPRP	-0.284
RRIRGRPPRLPRPRPRPATWPRP	0.565
RRIRHRPPRLPRPRPRPWADPRP	-0.36

Sequence	shrunken log2 fold change
RRIRIRPPRLPRPRPRPTWAPRP	0.0207
RRIRIRPPRLPRPRPRPAPAPRP	0.31
RRIRYRPPRLPRPRPRPSYRPRP	-0.0896
RRIRMRPPRLPRPRPRPTDSPRP	0.0971
RRIRNRPPRLPRPRPRPFIYPRP	-0.856
RRIRARPPRLPRPRPRPYSTPRP	-0.563
RRIRYRPPRLPRPRPRPEANPRP	-0.127
RRIRTRPPRLPRPRPRPDTSPRP	-0.324
RRIRLRPPRLPRPRPRPATAPRP	0.214
RRIRDRPPRLPRPRPRPDSWPRP	0.0194
RRIRQRPPRLPRPRPRPPSQPRP	0.0863
RRIRQRPPRLPRPRPRPMLHPRP	-0.0433
RRIRARPPRLPRPRPRPDVRPRP	0.0106
RRIRNRPPRLPRPRPRPESDPRP	0.648
RRIRGRPPRLPRPRPRPYCDPRP	0.226
RRIRYRPPRLPRPRPRPTKQPRP	0.0156
RRIRYRPPRLPRPRPRPRPQPRP	0.438
RRIRCRPPRLPRPRPRPPHLPRP	0.079
RRIRWRPPRLPRPRPRPIYCPRP	-0.581
RRIRARPPRLPRPRPRPTPNPRP	0.602
RRIRGRPPRLPRPRPRPCAYPRP	0.0946
